Consider 1 substance from patent publication US20050202025A1.

In this assay the target is FbsA on cells of S. agalactiae O90R (Streptococcus agalactiae). Put plainly: increasing fibrinogen on S. agalactiae O90R cells immobilised on microtiter wells; apparent KD from the concentration for half maximal binding.

On to “human fibrinogen (from UniProt P02671 20-629; P02675 31-491; P02679 27-437) (ligand)”, for which the Kd was 25 nM.
